# Reference: the supplement of paper PMC6755084
# B1: F1*; the commonest letter at each place (parent)
# chain: GAGACCGCAACTGAAAAGTTGTTATCACTTGTCGTAAGACACTTTGGATGGGTTGAAGTTCTGCACGTAGAAGCAAAAGGC
# Variants of: B1
# Experiment: fraction ligated after 30 min (ligated reads / total reads); higher = more ligase activity
# Settings: with F1*sub RNA substrate (template-directed ligation), 42 °C
# In short: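 The ligase ribozyme variants were produced by PCR amplification of oligo-pool templates, T7 transcription and purification on gel. Their ligated and unligated forms were gel-separated, then reverse transcribed with barcoded primers before MiSeq sequencing. Core bases were filtered at a quality of ≥20, and fraction ligated per variant was ligated reads over total reads.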
row,Variant,fraction ligated
1,G47T A57G,0.101
2,G47T A57C,0.0653
3,G47T A57T,0.0782
4,G50T A56C,0.0586
5,G50T A56T,0.0827
6,G50T A56G,0.0624
7,G50C G55C,0.0221
8,G50C G55T,0.0259
9,G50C G55A,0.112
10,A48G A57T,0.795
11,A48G A57G,0.803
12,A48G A57C,0.792
13,G55A A56G A57C,0.131
14,G55A A56G A57G,0.338
15,G55A A56G A57T,0.152
16,G50T G55A,0.455
17,G50T G55C,0.143
18,G50T G55T,0.123
19,G55A A56C A57T,0.151
20,G55A A56C A57C,0.0438
21,G55A A56C A57G,0.0754
22,T49C G55A,0.335
23,T49C G55T,0.091
24,T49C G55C,0.0675

row,Variant,fraction ligated
1,T49C A57C,0.266
2,T49C A57G,0.445
3,T49C A57T,0.3
4,A48T A57C,0.68
5,A48T A57T,0.546
6,A48T A57G,0.787
7,A48C G55C,0.16
8,A48C G55A,0.743
9,A48C G55T,0.5
10,A48G T49C,0.504
11,A48G T49G,0.752
12,A48G T49A,0.678
13,T54G,0.807
14,T54A,0.828
15,T54C,0.846
16,A48C T49C,0.335
17,A48C T49G,0.763
18,A48C T49A,0.555
19,G50A,0.589
20,G50T,0.743
21,G50C,0.424
22,A48C G50A,0.148
23,A48C G50T,0.309
24,A48C G50C,0.17

row,Variant,fraction ligated
1,T49G A57G,0.734
2,T49G A57T,0.706
3,T49G A57C,0.523
4,G50T A57G,0.526
5,G50T A57C,0.172
6,G50T A57T,0.324
7,G55A A57C,0.786
8,G47T T49G,0.261
9,G47T T49A,0.0948
10,G47T T49C,0.0788
11,A48T T49C,0.139
12,A48T T49A,0.565
13,A48T T49G,0.348
14,T49A G50A,0.281
15,T49A G50C,0.502
16,T49A G50T,0.769
17,T49G G50T,0.667
18,T49G G50C,0.0713
19,T49G G50A,0.388
20,G52T,0.695
21,G52C,0.726
22,G52A,0.827
23,A48T G50T,0.392
24,A48T G50C,0.0873

row,Variant,fraction ligated
1,A48T G50A,0.158
2,G47T A56C,0.0301
3,G47T A56T,0.0333
4,G47T A56G,0.0352
5,G55A A56T,0.8
6,G55A A56G,0.821
7,G55A A56C,0.729
8,G47T,0.37
9,G55A A56T A57C,0.0139
10,G55A A56T A57T,0.161
11,G55A A56T A57G,0.143
12,G47T A48C,0.0847
13,G47T A48G,0.183
14,G47T A48T,0.283
15,A48C A56T,0.289
16,A48C A56C,0.185
17,A48C A56G,0.283
18,T49C,0.731
19,T49G,0.778
20,T49A,0.777
21,T53C,0.849
22,T53A,0.834
23,T53G,0.831
24,T49A A57T,0.724

row,Variant,fraction ligated
1,T49A A57C,0.629
2,T49A A57G,0.792
3,G50C A56G,0.0166
4,G50C A56C,0.00754
5,G50C A56T,0.0147
6,T49A A56T,0.209
7,T49A A56G,0.116
8,T49A A56C,0.102
9,T49C A56T,0.0726
10,T49C A56C,0.0481
11,T49C A56G,0.0622
12,G51T,0.792
13,G51C,0.812
14,G51A,0.797
15,G50C A57T,0.0648
16,G50C A57C,0.033
17,G50C A57G,0.104
18,T49G A56C,0.109
19,T49G A56G,0.0888
20,T49G A56T,0.191
21,G47C G55C,0.0788
22,G47C G55T,0.0996
23,A48G A56T,0.357
24,A48G A56G,0.399

row,Variant,fraction ligated
1,A48G A56C,0.259
2,A48T,0.768
3,A48C,0.752
4,A48G,0.794
5,T49G G55T,0.243
6,T49G G55C,0.136
7,T49G G55A,0.688
8,G47T G55T,0.0451
9,G47T G55A,0.0777
10,G47T G55C,0.0359
11,G47C T49A,0.0759
12,G47C T49G,0.0669
13,G47C T49C,0.0543
14,A48G G55T,0.686
15,A48G G55C,0.108
16,A48G G55A,0.787
17,G50A G55T,0.0307
18,G50A G55C,0.0427
19,G50A G55A,0.178
20,A48G G50C,0.0771
21,A48G G50A,0.118
22,A48G G50T,0.235
23,G50A A57T,0.216
24,G50A A57C,0.0747

row,Variant,fraction ligated
1,G50A A57G,0.251
2,G55A,0.822
3,A48C A57C,0.714
4,A48C A57G,0.762
5,A48C A57T,0.719
6,T49C G50A,0.216
7,T49C G50C,0.455
8,T49C G50T,0.714
9,A48T A56T,0.0621
10,A48T A56C,0.0454
11,A48T A56G,0.0654
12,G50A A56T,0.0351
13,G50A A56C,0.0252
14,G50A A56G,0.0277
15,A48T G55T,0.17
16,A48T G55C,0.0233
17,A48T G55A,0.515
18,T49A G55T,0.24
19,T49A G55A,0.62
20,T49A G55C,0.129
21,G47T G50C,0.048
22,G47T G50A,0.0507
23,G47T G50T,0.108
